Source: patent US20260115256A1 (HANGZHOU SCIWIND BIOSCIENCES, published 2026)
*1 amine or outer side, *2 acyl side, *3 side chain or, on linkers, in order; H or OH if unused. Bridges are numbered along the chain shown (N, C = ends). Primed or numbered codes have the meaning given here. Where no end group is shown, it is not given here. Side-chain parts run from the residue outwards. [ ]: non-standard residue; d: D form. The star is where a group is joined. C20 diacid = O=C(O)CCCCCCCCCCCCCCCCCCC(=O)*; γGlu = O=C(O)[C@H](CCC(=O)[*:2])N[*:1]; βAsp = O=C(O)[C@H](CC(=O)[*:2])N[*:1]; Hyp = O=C(O)[C@@H]1C[C@@H](O)CN1; Cit = NC(=O)NCCC[C@H](N)C(=O)O; Orn = NCCC[C@H](N)C(=O)O; Dab = NCC[C@H](N)C(=O)O; Inp′ = not defined here; Trx′ = not defined here; AOC = not defined here; Dap = NC[C@H](N)C(=O)O; PEG = not defined here; AEEA = NCCOCCOCC(=O)O; Sar = CNCC(=O)O

T1: human amylin receptor (AMY3) on CHO-K1/Ga15/AMY3 cells (human, UniProt P30988 25-474; O60896 24-148)
T1 sequence (looked up) 1: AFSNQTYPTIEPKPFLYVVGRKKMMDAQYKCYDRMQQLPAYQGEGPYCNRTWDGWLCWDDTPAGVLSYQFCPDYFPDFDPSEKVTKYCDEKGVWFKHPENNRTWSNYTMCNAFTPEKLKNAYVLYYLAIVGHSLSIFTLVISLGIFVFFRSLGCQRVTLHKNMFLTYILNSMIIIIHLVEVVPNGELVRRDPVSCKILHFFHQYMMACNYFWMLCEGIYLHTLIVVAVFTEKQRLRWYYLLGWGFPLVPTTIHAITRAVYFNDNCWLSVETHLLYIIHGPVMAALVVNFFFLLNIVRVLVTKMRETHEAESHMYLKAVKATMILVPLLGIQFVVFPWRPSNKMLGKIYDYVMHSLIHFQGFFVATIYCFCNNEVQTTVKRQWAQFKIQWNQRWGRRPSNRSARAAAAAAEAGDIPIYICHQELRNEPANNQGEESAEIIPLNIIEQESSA
T1 sequence (looked up) 2: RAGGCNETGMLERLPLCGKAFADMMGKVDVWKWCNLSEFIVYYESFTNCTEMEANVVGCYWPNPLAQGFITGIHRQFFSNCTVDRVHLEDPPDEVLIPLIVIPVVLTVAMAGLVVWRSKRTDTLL


Molecular target: T1, human amylin receptor (AMY3) on …
Experiment: cell-based or functional assay

| Binder | EC50, CRE-luciferase assay |
| --- | --- |
| {C20 diacid-γGlu}-KCNTATCATQRLADFLRHSSNNL[aK]PILPPTNVGSNTP-NH2 (disulfide 2-7 (inferred)) [PD167] | 50 pM |
| {C20 diacid-AEEA-AEEA}-KCNTATCATQRLADFLRHSSNNLKPILPPTNVGSNTX-NH2 (disulfide 2-7 (inferred); not fully specified (residue 37); printed as KCNTATCATQRLADFLRHSSNNLKPILPPTNVGSNT-trans-Hyp-NH2) [PD187] | 16 pM |
| {C20 diacid-γGlu}-KCNTATCATQRLADFLRHSSNNLSPILPPTNVGSNTP-NH2 (disulfide 2-7 (inferred)) [PD166] | 54 pM |
| {C20 diacid-γGlu}-KCNTATCATQRLADFLRHSSNNLHPILPPTNVGSNTP-NH2 (disulfide 2-7 (inferred)) [PD162] | 35 pM |
| {C20 diacid-PEG-PEG-PEG-PEG-PEG-PEG-PEG-PEG-γGlu}-KCNTATCATQRLADFLRHSSNNLKPILPPTNVGSNT[Hyp]-NH2 (disulfide 2-7 (inferred); reading uncertain) [PD186] | 52 pM |
| {C20 diacid-γGlu}-KCNTATCATQRLADFLRHSSNNL[AOC]PILPPTNVGSNTP-NH2 (disulfide 2-7 (inferred); reading uncertain) [PD174] | 46 pM |
| {C20 diacid-AEEA-AEEA-Trx′}-KCNTATCATQRLADFLRHSSNNLKPILPPTNVGSNT[Hyp]-NH2 (disulfide 2-7 (inferred); reading uncertain) [PD178] | 17 pM |
| {C20 diacid-Inp′-AEEA-AEEA}-KCNTATCATQRLADFLRHSSNNLKPILPPTNVGSNTP-NH2 (disulfide 2-7 (inferred)) [PD191] | 61 pM |
| {C20 diacid-AEEA-AEEA-Trx′}-KCNTATCATQRLADFLRHSSNNLKPILPPTNVGSNTP-NH2 (disulfide 2-7 (inferred); reading uncertain; also: printed as N-terminal: Trx + 2*AEEA + C20 diacid; C-terminal NH2) [PD190] | 17 pM |
| {C20 diacid-γGlu}-KCNTATCATQRLADFLRHSSNNLRPILPPTNVGSNTP-NH2 (disulfide 2-7 (inferred)) [PD161] | 26 pM |
| {C20 diacid-γGlu}-KCNTATCATQRLADFLRHSSNNLKPILPPTNVGSNTP-NH2 (disulfide 2-7 (inferred)) [PD160] | 35 pM |
| {C20 diacid-βAsp-AEEA-AEEA}-KCNTATCATQRLADFLRHSSNNLKPILPPTNVGSNT[Hyp]-NH2 (disulfide 2-7 (inferred)) [PD183] | 40 pM |
| {C20 diacid-γGlu}-KCNTATCATQRLADFLRHSSNNL[Sar]PILPPTNVGSNTP-NH2 (disulfide 2-7 (inferred)) [PD172] | 75 pM |
| {C20 diacid-γGlu}-KCNTATCATQRLADFLRHSSNNLPPILPPTNVGSNTP-NH2 (disulfide 2-7 (inferred)) [PD163] | 84 pM |
| {C20 diacid-γGlu}-KCNTATCATQRLADFLRHSSNNL[Dab]PILPPTNVGSNTP-NH2 (disulfide 2-7 (inferred)) [PD169] | 39 pM |
| {C20 diacid-γGlu}-KCNTATCATQRLADFLRHSSNNLDPILPPTNVGSNTP-NH2 (disulfide 2-7 (inferred)) [PD164] | 111 pM |
| {C20 diacid-Trx′-AEEA-AEEA}-KCNTATCATQRLADFLRHSSNNLKPILPPTNVGSNT[Hyp]-NH2 (disulfide 2-7 (inferred); reading uncertain) [PD177] | 24 pM |
| RCNTATCATQRLAEFLRHSSK([AEEA-AEEA-γGlu-C20 diacid])NLGPILPPTNVGSNTP-NH2 (disulfide 2-7 (inferred)) [PD001] | 42 pM |
| {C20 diacid-Trx′-AEEA-AEEA}-KCNTATCATQRLADFLRHSSNNLKPILPPTNVGSNTP-NH2 (disulfide 2-7 (inferred); reading uncertain; also: printed as N-terminal: 2*AEEA + Trx + C20 diacid; C-terminal NH2) [PD189] | 29 pM |
| RCNTATCATQRLAEFLRHSSNNLK([γGlu-C20 diacid])PILPPTNVGSGT[Hyp]-NH2 (disulfide 2-7 (inferred)) [PD041] | 259 pM |

The next lines start with the values.

| EC50, CRE-luciferase assay | Binder |
| --- | --- |
| 53 pM | {C20 diacid-γGlu}-KCNTATCATQRLADFLRHSSNNL[Cit]PILPPTNVGSNTP-NH2 (disulfide 2-7 (inferred)) [PD171] |
| 37 pM | {C20 diacid-AEEA-AEEA-βAsp}-KCNTATCATQRLADFLRHSSNNLKPILPPTNVGSNT[Hyp]-NH2 (disulfide 2-7 (inferred)) [PD184] |
| 22 pM | {C20 diacid}-D[AEEA][AEEA]KCNTATCATQRLADFLRHSSNNLKPILPPTNVGSNT[Hyp]-NH2 (disulfide 5-10 (inferred)) [PD181] |
| 25 pM | {C20 diacid-AEEA-AEEA-γGlu}-KCNTATCATQRLADFLRHSSNNLKPILPPTNVGSNTP-NH2 (disulfide 2-7 (inferred)) [PD188] |
| 41 pM | {C20 diacid-γGlu}-KCNTATCATQRLADFLRHSSNNL[Dap]PILPPTNVGSNTP-NH2 (disulfide 2-7 (inferred)) [PD168] |
| 16 pM | {C20 diacid-AEEA-AEEA-Inp′}-KCNTATCATQRLADFLRHSSNNLKPILPPTNVGSNT[Hyp]-NH2 (disulfide 2-7 (inferred)) [PD180] |
| 41 pM | {C20 diacid-γGlu}-KCNTATCATQRLADFLRHSSNNL[Orn]PILPPTNVGSNTP-NH2 (disulfide 2-7 (inferred)) [PD170] |
| 17 pM | {C20 diacid-Inp′-AEEA-AEEA}-KCNTATCATQRLADFLRHSSNNLKPILPPTNVGSNT[Hyp]-NH2 (disulfide 2-7 (inferred)) [PD179] |
| 50 pM | {C20 diacid-γGlu}-KCNTATCATQRLADFLRHSSNNLNPILPPTNVGSNTP-NH2 (disulfide 2-7 (inferred)) [PD165] |
| 111 pM | RCNTATCATQRLADFLRHSSNNLK([γGlu-C20 diacid])PILPPTNVGSNTP-NH2 (disulfide 2-7 (inferred)) [PD042] |
| 64 pM | {C20 diacid-γGlu}-KCNTATCATQRLADFLRHSSNNL[Trx′]PILPPTNVGSNTP-NH2 (disulfide 2-7 (inferred); reading uncertain) [PD173] |
| 34 pM | {C20 diacid-AEEA-AEEA}-DKCNTATCATQRLADFLRHSSNNLKPILPPTNVGSNT[Hyp]-NH2 (disulfide 3-8 (inferred)) [PD182] |
| 29 pM | {C20 diacid-AEEA-AEEA-γGlu}-KCNTATCATQRLADFLRHSSNNLKPILPPTNVGSNT[Hyp]-NH2 (disulfide 2-7 (inferred)) [PD176] |
